Laboratory results from patent US10378034B2, “Use of a N-acetylneuraminate lyase derived from the bacterium Aliivibrio salmonicida in the production of neuraminic acid and derivatives thereof” (Universitetet i Tromsø-Norges Arktiske Universitet, priority 2014, dated 2019).

Experiments:
[1] = Differential scanning calorimetry (DSC); format: physicochemical; details: 500 mM NaCl, 50 mM HEPES pH 7.5
Method: The melting temperature of AsNAL was studied by differential scanning calorimetry (DSC). The pure protein was dialyzed overnight at 4° C. against a buffer containing 50 mM HEPES, pH 7.5 and 500 mM NaCl in a Pierce Slide-A-Lyzer dialysis cassette (3.5 kDa cut-off). Dialyzed protein was concentrated to 1.9 mg/ml using a 10 kDa cutoff Amicon Ultra spin-column (Millipore), filtered through a 0.2 μm filter (Millipore) and degassed for 15 min. DSC experiments were carried out with a Nano-Differential Scanning Calorimeter III, (calorimetry Sciences Corporation) at a scan rate of 1° C./min in the range from 1 to 80° C. and with a constant pressure of 3 atm. The dialysis buffer was used as reference in the DSC runs. The melting temperature of the protein was calculated by subtracting the buffer-buffer baseline from the protein scan. Refolding experiments were carried out by a reverse cooling scan, allowing the unfolded protein to be kept at 4° C. overnight before a new forward scan was done. The NanoAnalyze™ software was used to calculate the melting temperature. The experimental transition curves were fitted on a two-state transition model.

[2] = Comparative specific activity, condensation reaction (TBA assay); format: biochemical
Method: Both the condensation and cleavage activities of NAL were assessed using the modified thiobarbituric acid (TBA) assay developed by Aminoff (1961) and Warren (1959). The condensation activity was determined by incubating 50 μl of a reaction mixture containing 15 mM sodium pyruvate, 15 mM ManNAc, 124 mM HEPES pH 8.0 and different concentrations of enzyme depending on assay type at selected temperatures for the required amount of time. The reaction was terminated by adding 137 μl 2.5 mg/ml sodium periodate in 57 mM H2SO4, followed by incubation at 37° C. for 15 min with shaking at 1350 rpm. Sodium arsenite (50 μl, 25 mg/ml sodium arsenite in 0.5 M HCl) was added resulting in brown color. The tubes were shaken manually until the brown color disappeared. 2-thiobarbituric acid solution (100 μl, 71 mg/ml adjusted to pH 9.0) was subsequently added, and the tubes were incubated in boiling water for 7.5 min. The tubes were incubated on ice for 5 min and allowed to remain at room temperature for 5 min. The red chromophore was extracted by addition of acidic butanol (1 ml of acidic butanol with 5% HCl) and horizontal shaking for 10 min. Tubes were centrifuged at 16060×g, 7 min (room temperature) to separate the organic and inorganic phases. The organic phase containing the red chromophore (200 μl) was used for measurement of absorbance at 549 nm in a spectrophotometer (SpectraMax M2e, Molecular Devices). The amount of Neu5Ac produced was inferred from a standard curve. To generate a standard curve, different concentrations of Neu5Ac (0.031 mM-1 mM) were treated with 137 μl of 2.5 mg/ml sodium periodate in 57 mM H2SO4 and the TBA assay procedure was followed as described above.
Standard reaction mixtures were incubated at room temperature for 1 h before being subjected to the TBA assay.

[3] = TBA assay, cleavage activity: pH and temperature profiles; format: biochemical
Method: The cleavage activity was determined by incubating 50 μl of a reaction mixture containing 5 mM Neu5Ac, 124 mM HEPES pH 8.0 and different concentrations of enzyme depending on assay type at selected temperatures for the required amount of time. Termination of the reactions and subsequent steps of the assay are as described above. The decrease in absorbance is correlated to the increase in cleavage activity.
pH profiles were determined by assaying the enzyme in triplicate for both condensation and cleavage directions at pH values ranging from 5.5 to 11.0 with 0.5 pH unit intervals. Sodium phosphate buffer was used from pH 5.5 to 7.5, HEPES buffer from pH 6.5 to 8.0, Tris-HCl buffer from pH 7.5 to 9.0 and Glycine buffer from pH 9.0 to 11.0. The reaction mixture was incubated at room temperature for 1 h before being subjected to the TBA assay. Temperature profiles were determined for both directions by assaying the enzyme in triplicate from 4 to 80° C. in HEPES buffer pH 8.0. The reaction mixture was incubated for 30 min at selected temperatures and the reaction was terminated by adding 2 μl of concentrated H2SO4 and then subjected to the TBA assay.

[4] = Long term stability at different pH (condensation activity after one month); format: physicochemical
Method: (§1) Long term stability of AsNAL at different pH was studied by incubating the enzyme at pH values from 6.0 to 11.0 at room temperature for a month. Buffers used were Sodium phosphate (pH 6.0-7.0), HEPES (pH 7.0-8.0), Tris-HCl (pH 8.0-9.0) and glycine (pH 9.0-11.0). The enzyme activity in the condensation direction was measured using the standard reaction mixture incubated at room temperature for 1 h, with subsequent TBA assay. The stability of AsNAL at different pH was also studied using the thermofluor method described by Ericsson et al. (2006) where increased or decreased stability is related to the increase or decrease in the melting temperature of the protein. For the thermofluor assay, the protein was dialyzed overnight at 4° C. against a buffer containing 10 mM HEPES pH 7.5, 150 mM NaCl and 2 mM β-ME in Pierce Slide-A-Lyzer dialysis cassettes with a 3.5 kDa cutoff. The dialyzed protein was mixed with 2 μl of 300× Sypro® Orange protein gel stain (Sigma) and 100 mM of different buffers ranging from pH 5.0 to pH 9.0. Thermal shifts were screened for by heating in an iCycler iQ Real Time PCR Detection System (Bio-Rad Laboratories) from 1 to 80° C. in increments of 1° C./min. The buffers tested were: Sodium acetate (pH 5.0), Phosphate citrate (pH 5.0-5.5), Sodium citrate (pH 5.5), MES (pH 6.0-6.5), Na-cacodylate (pH 6.0-6.5), Sodium dipotassium phosphate (pH 6.5), BisTris (pH 7.0), HEPES (pH 7.0-8.0), Tris-HCl (pH 7.5-8.5), Imidazole (pH 7.5-8.0), Bicine (pH 8.5) and BisTris propane (pH 8.5-9.0).

[5] = Thermofluor thermal denaturation; format: physicochemical
Method: as §1, with “The buffers tested were: Sodium acetate (pH 5.0), Phosphate citrate (pH 5.0-5.5), Sodium citrate (pH 5.5), MES (pH 6.0-6.5), Na-cacodylate (pH 6.0-6.5), Sodium dipotassium phosphate (pH 6.5), BisTris (pH 7.0), HEPES (pH 7.0-8.0), Tris-HCl (pH 7.5-8.5), Imidazole (pH 7.5-8.0), Bicine (pH 8.5) and BisTris propane (pH 8.5-9.0).” left out

B1: AsNAL: N-acetylneuraminate lyase isolated from the psychrophilic bacterium Aliivibrio salmonicida LFI1238, recombinantly expressed in E. coli (protein, listed as Aliivibrio salmonicida)
chain: MKKLTGLIAAPHTPFDSSSNVNFEEIDKIAKHLINDGVKGIYVCGTTGEGIHCSVEERKAIAERWVSACNHKLDIIVHTGALSIVDTLELTRHADTLDILATSAIGPCFFKPGSVSDLVEYCATIAAAAPSKGFYYYHSGMSGVNLNMEEFLIQADKRIPNLSGLKFNSGDLYEYQRCLRACDGKFDVPFGVDEFLPGALAVGAKSAVGSTYNYAAPHFNSIIEAFNKGDHDAVFNKMTNVIELIRVLVEFGGVAAGKIAMELHDINAGDPRLPLMPLSAEQKLTVVEKMRAANFLK
melting temperature (DSC) [1]: 77.5 °C
ΔH (DSC) [1]: 179.164 kcal/mol
ΔS (DSC) [1]: 2.137 kJ/(mol·K)
specific activity of the condensation reaction, higher than EcNAL ([2]; 4° C.): 40%
specific activity of the condensation reaction, higher than EcNAL ([2]; 23° C.): 60%
specific activity of the condensation reaction, higher than EcNAL ([2]; 37° C.): 40%
optimal temperature, cleavage reaction ([3]; HEPES buffer pH 8.0, 30 min): 65 °C
cleavage activity retained ([3]; at 10° C., relative to highest value): 30%
decrease in activity (condensation) after one month ([4]; Glycine pH 11.0, room temperature): 3.3%
decrease in activity (condensation) after one month ([4]; HEPES pH 8.0, room temperature): 14.5%
decrease in activity (condensation) after one month ([4]; Phosphate pH 7.0, room temperature): 15%
decrease in activity (condensation) after one month ([4]; Tris-HCl pH 8.0, room temperature): 14%
decrease in activity (condensation) after one month ([4]; Tris-HCl pH 8.5, room temperature): 6.4%
decrease in activity (condensation) after one month ([4]; Tris-HCl pH 9.0, room temperature): 4%
activity retained after storage compared to initial activity ([4]; all measured pH (6.0 to 11.0), one month, room temperature): More than 83%
melting temperature (thermofluor) ([5]; 500 mM NaCl): 76.9 °C
melting temperature (thermofluor) ([5]; milli-Q water): 73.15±0.21 °C
